# In patent US20240336909:
# B1: MMP-12 (protein)
# chain: GPVWRKHYITYRINNYTPDMNREDVDYAIRKAFQVWSNVTPLKFSKINTGMADILVVFARGAHGDFHAFDGKGGILAHAFGPGSGIGGDAHFDEDEFWTTHSGGTNLFLTAVHEIGHSLGLGHSSDPKAVMFPTYKYVDINTFRLSADDIRGIQSLYGDPKENQRLPNPDNSEPALCDPNLSFDAVTTVGNKIFFFKDRFFWLKVSERPKTSVNLISSLWPTLPSGIEAAYEIEARNQVFLFKDDKYWLISNLRPEPNYPKSIHSFGFPNFVKKIDAAVFNPRFYRTYFFVDNQYWRYDERRQMMDPGYPKLITKNFQGIGPKIDAVFYSKNKYYYFFQGSNQFEYDFLLQRITKTLKSNSWFGC
# B2: MMP-7 (protein)
# chain: YSLFPNSPKWTSKVVTYRIVSYTRDLPHITVDRLVSKALNMWGKEIPLHFRKVVWGTADIMIGFARGAHGDSYPFDGPGNTLAHAFAPGTGLGGDAHFDEDERWTDGSSLGINFLYAATHELGHSLGMGHSSDPNAVMYPTYGNGDPQNFKLSQDDIKGIQKLYGKRSNSRKK
# B3: MMP-1 (protein)
# chain: FVLTEGNPRWEQTHLTYRIENYTPDLPRADVDHAIEKAFQLWSNVTPLTFTKVSEGQADIMISFVRGDHRDNSPFDGPGGNLAHAFQPGPGIGGDAHFDEDERWTNNFREYNLHRVAAHELGHSLGLSHSTDIGALMYPSYTFSGDVQLAQDDIDGIQAIYGRSQNPVQPIGPQTPKACDSKLTFDAITTIRGEVMFFKDRFYMRTNPFYPEVELNFISVFWPQLPNGLEAAYEFADRDEVRFFKGNKYWAVQGQNVLHGYPKDIYSSFGFPRTVKHIDAALSEENTGKTYFFVANKYWRYDEYKRSMDPGYPKMIAHDFPGIGHKVDAVFMKDGFFYFFHGTRQYKFDPKTKRILTLQKANSWFNCRKN
# Assays:
# [1] = target: AxCT mask27 EpCAM H90.2 L060 version 1
# [2] = target: AxCT mask27 EGFR EH104 L056 version 1
# [3] = target: AxCT mask27 EGFR EH104 L062 version 1
# [4] = target: AxCT mask27 EGFR EH104 L065 version 1
# [5] = target: AxCT mask27 EGFR EH104 L001 version 1
# [6] = target: AxCT mask27 EGFR EH104 L054 version 1
# [7] = target: AxCT mask27 EGFR EH104 L058 version 1
# [8] = target: AxCT mask27 EGFR EH104 L040 version 1
# [9] = target: AxCT mask27 EGFR EH104 L061 version 1
# [10] = target: AxCT mask27 EGFR EH104 L067 version 1
# [11] = target: AxCT mask27 EpCAM H90.2 L075 version 1
# [12] = target: AxCT mask27 EpCAM H90.2 NCLV
# [13] = target: AxCT mask27 EpCAM H90.2 L076 version 1
# [14] = target: AxCT mask27 EpCAM H90.2 L063 version 1
# [15] = target: AxCT mask27 EGFR EH104 L073 version 1
# [16] = target: AxCT mask27 EGFR EH104 L057 version 1
# [17] = target: AxCT mask27 EpCAM H90.2 L064 version 1
# [18] = target: AxCT mask27 EpCAM H90.2 L073 version 1
# [19] = target: AxCT mask27 EpCAM H90.2 L041 version 1
# [20] = target: AxCT mask27 EpCAM H90.2 L043 version 1
# [21] = target: AxCT mask27 EGFR EH104 L068 version 1
# [22] = target: AxCT mask27 EpCAM H90.2 L040 version 1
# [23] = target: AxCT mask27 EGFR EH104 L063 version 1
# [24] = target: AxCT mask27 EGFR EH104 L059 version 1
# [25] = target: AxCT mask27 EGFR EH104 L071 version 1
# [26] = target: AxCT mask27 EGFR EH104 L072 version 1
# [27] = target: AxCT mask27 EGFR EH104 L055 version 1
# [28] = target: AxCT mask27 EGFR EH104 L069 version 1
# [29] = target: AxCT mask27 EGFR EH104 L070 version 1
# [30] = target: AxCT mask27 EGFR EH104 L066 version 1
# [31] = target: AxCT mask27 EGFR EH104 L043 version 1
# [32] = target: AxCT mask27 EGFR EH104 L060 version 1
# [33] = target: AxCT mask27 EpCAM H90.2 L061 version 1
# [34] = target: AxCT mask27 EpCAM H90.2 L059 version 1
# [35] = target: AxCT mask27 EGFR EH104 L064 version 1
# [36] = target: AxCT mask27 EpCAM H90 L001 version 1
# [37] = target: AxCT mask27 EGFR EH104 L041 version 1
Protein,Percent cleavage [1] [%],Percent cleavage [2] [%],Percent cleavage [3] [%],Percent cleavage [4] [%],Percent cleavage [5] [%],Percent cleavage [6] [%],Percent cleavage [7] [%],Percent cleavage [8] [%],Percent cleavage [9] [%],Percent cleavage [10] [%],Percent cleavage [11] [%],Percent cleavage [12] [%],Percent cleavage [13] [%],Percent cleavage [14] [%],Percent cleavage [15] [%],Percent cleavage [16] [%],Percent cleavage [17] [%],Percent cleavage [18] [%],Percent cleavage [19] [%],Percent cleavage [20] [%],further results
B1,16,12,51,68,68,30,9,13,49,26,0,0,0,33,31,18,36,36,0,0,Percent cleavage [21]: 9%; Percent cleavage [22]: 0%; Percent cleavage [23]: 31%; Percent cleavage [24]: 62%; Percent cleavage [25]: 51%; Percent cleavage [26]: 48%; Percent cleavage [27]: 72%; Percent cleavage [28]: 63%; Percent cleavage [29]: 19%; Percent cleavage [30]: 16%; Percent cleavage [31]: 0%; Percent cleavage [32]: 18%; Percent cleavage [33]: 64%; Percent cleavage [34]: 71%; Percent cleavage [35]: 34%; Percent cleavage [36]: 91%; Percent cleavage [37]: 0%
B2,9,6,25,60,71,24,0,0,26,0,0,0,0,48,27,0,32,43,0,0,Percent cleavage [21]: 0%; Percent cleavage [22]: 0%; Percent cleavage [23]: 37%; Percent cleavage [24]: 0%; Percent cleavage [25]: 30%; Percent cleavage [26]: 0%; Percent cleavage [27]: 67%; Percent cleavage [28]: 0%; Percent cleavage [29]: 9%; Percent cleavage [30]: 0%; Percent cleavage [31]: 0%; Percent cleavage [32]: 9%; Percent cleavage [33]: 35%; Percent cleavage [34]: 0%; Percent cleavage [35]: 28%; Percent cleavage [36]: 92%; Percent cleavage [37]: 0%
B3,0,6,0,10,40,0,0,6,0,0,0,0,0,0,0,7,0,0,0,0,Percent cleavage [21]: 0%; Percent cleavage [22]: 0%; Percent cleavage [23]: 0%; Percent cleavage [24]: 0%; Percent cleavage [25]: 0%; Percent cleavage [26]: 0%; Percent cleavage [27]: 10%; Percent cleavage [28]: 0%; Percent cleavage [29]: 0%; Percent cleavage [30]: 6%; Percent cleavage [31]: 0%; Percent cleavage [32]: 0%; Percent cleavage [33]: 0%; Percent cleavage [34]: 0%; Percent cleavage [35]: 0%; Percent cleavage [36]: 48%; Percent cleavage [37]: 0%
